# Results from publication PMC3664792 (Nucleic Acids Research, 2013).
# How the values were obtained:
# [1] = biological target: β2 sliding clamp (E. coli, UniProt P0A988 1-366); test: SEC
# [2] = biological target: His6-αGL (E. coli, UniProt P10443 1-1160, A921L | M923L | Val832Gly); test: pull-down
# [3] = biological target: α270-His6 (E. coli, UniProt P10443 1-270); test: NMR
# [4] = biological target: α270(L21P) in construct A (E. coli, UniProt P10443 1-270, Leu21Pro); test: crystal structure
# [5] = biological target: α270 in construct A (εCTS35–α270) (E. coli, UniProt P10443 1-270); test: NMR
binder,measurement,setting,value
εL (natural protein) MSTAITRQIVLDTETTGMNQIGAHYEGHKIIEIGAVEVVNRRLTGNNFHVYLKPDRLVDPEAFGVHGIADEFLLDKPTFAEVADEFMDYIRGAELVIHNAAFDIGFMDYEFSLLKRDIPKTNTFCKVTDSLAVARKMFPGKRNSLDALCARYEIDNSKRTLHGALLDAQILAEVYLAMTGGQLSLPLAMEGETQQQQGEATIQRIVRQASKLRVVFATDEEIAAHEARLDLVQKKGGSCLWRA,binding result,[1],binds
same,binding result,[2],binds
εCTS59 (domain or fragment) MAFAMEGETQQQQGEATIQRIVRQASKLRVVFATDEEIAAHEARLDLVQKKGGSCLWRA,binding result,[3],binds
ATIQRIVRQASKLRVVFATDEEIAAHEARLDLVQKKGGSCLWRA (domain or fragment) [εCTS44 (residues 200–243 of ε) in construct A],binding result,[4],binds
ASKLRVVFATDEEIAAHEARLDLVQKKGGSCLWRA (domain or fragment) [εCTS35 (residues 209–243 of ε) in construct A],binding result,[4],binds
same,binding result,[5],binds
